From patent US20120202233

Biological target: myc-CRAF (wild type)

B1: FLAG-KSR (wild-type KSR1) (protein)
chain: MDRAALRAAAMGEKKEGGGGGAAADGGAGAAVSRALQQCGQLQKLIDISIGSLRGLRTKCSVSNDLTQQEIRTLEAKLVKYICKQQQSKLSVTPSDRTAELNSYPRFSDWLYIFNVRPEVVQEIPQELTLDALLEMDEAKAKEMLRRWGASTEECSRLQQALTCLRKVTGLGGEHKMDSGWSSTDARDSSLGPPMDMLSSLGRAGASTQGPRSISVSALPASDSPVPGLSEGLSDSCIPLHTSGRLTPRALHSFITPPTTPQLRRHAKLKPPRTPPPPSRKVFQLLPSFPTLTRSKSHESQLGNRIDDVTPMKFELPHGSPQLVRRDIGLSVTHRFSTKSWLSQVCNVCQKSMIFGVKCKHCRLKCHNKCTKEAPACRITFLPLARLRRTESVPSDINNPVDRAAEPHFGTLPKALTKKEHPPAMNLDSSSNPSSTTSSTPSSPAPFLTSSNPSSATTPPNPSPGQRDSRFSFPDISACSQAAPLSSTADSTRLDDQPKTDVLGVHEAEAEEPEAGKSEAEDDEEDEVDDLPSSRRPWRGPISRKASQTSVYLQEWDIPFEQVELGEPIGQGRWGRVHRGRWHGEVAIRLLEMDGHNQDHLKLFKKEVMNYRQTRHENVVLFMGACMNPPHLAIITSFCKGRTLHSFVRDPKTSLDINKTRQIAQEIIKGMGYLHAKGIVHKDLKSKNVFYDNGKVVITDFGLFGISGVVREERRENQLKLSHDWLCYLAPEIVREMIPGRDEDQLPFSKAADVYAFGTVWYELQARDWPFKHQPAEALIWQIGSGEGVRRVLASVSLGKEVGEILSACWAFDLQERPSFSLLMDMLERLPKLNRRLSHPGHFWKSADINSSKVMPRFERFGLGTLESGNPKM
  in vitro kinase activity towards purified MEK in KSR immunoprecipitates, phospho-MEK antibody (FIG. 1G): Treatment of cells with PLX4720 induced kinase activity towards MEK in the KSR immunoprecipitates and only occurred when KSR and CRAF were co-expressed together
